The DeepSol protein solubility set

experiment: soluble on expression in E. coli; label from the status in PepcDB or PDB records

Soluble on expression in E. coli, not soluble:
MGSDKIHHHHHHMVALTDPDLLFPPEAHSRSLARDLYAGIKDLPIVSPHGHTDPRWYALNEPFPDPAQLLIVPDHYIFRMLFSQGVRLEDLGVASLDGAPVETDGRTIWRRFAEHYYLFRGTPTRLWFDHVLAHLFGIEEPLDATTADRHYDTIATVLQWENFRPRALFERFNIEVIATTEGALDDLEWHKMIRDSGWEGRVVTAYRPDAVVDPDFEGFSANLDRLGEITGCDTGSWAGYLDAHRQRRAFFKSFGATSSDHGHPTAETANLSDAAAQELFNRIRRGSQDERERKLFRAQMLTEMAKMSRDDGLVLQIHPGSWRNHSPSVFQRFGRDKGFDIPTRTDYVTALKPLLDCVGLERDLTVILFTLDESSYARELAPLAGVYPALKLGPAWWFHDSPEGMRRFREMTTETAGFYNTVGFNDDTRAFPSIPARHDVARRVDCAFLARLVAEHRLREDEAHELARELAHTLAKKAYRL
MGSDKIHHHHHHMTLEIAQKRTIKLLKSSTPKEKLNKFVKGYVPTHYKRLSISMEKAIELAIIGATESLAYYGDRLYFTQALLMGAVVSGEYDNIIVVTPSQYGKSWLSSRIAVWLADHNRRCYVAGGKKDTTDIIMQHVTDTLQTVDESIARKLLEPVDKLERLQTGLSKRKISFSGGGSIEGISLGEHFKGNKSGNQAIGRGGDYIIDESAFVSNETYAELGRRNFANVDGKNYLSFEISNPHNKGRFYDKLTQENIPKGMLVVWADVRTAFEEDRVKSIEQVISSEFFQNKSTCQRYFLCELPDENEDGMFGTPQTEEEHTEKNWEYFLGVDSAYKGKDKIKATLSALDAQGQVHVIDTIEIEKGDWQDGVTSKKIITQLLMIIEHFEVKGVCVDVGYGVYIVEGLAHINGDFELHGINFGAGTTKERVEKNHYSAKYGANKRAEMHIDLQENIDNRNIFFTEKVYEEVIDELVLVSSKIKSNGKTAIVPKEEIKAKLGHSPDTLDSVLLSLHAIILYKLNERFYIYS
MLELAILGLLIESPMHGYELRKRLTGLLGAFRAFSYGSLYPALRRMQADGLIAENAAPAGTPVRRARRVYQLTDKGRRRFGELVADTGPHNYTDDGFGVHLAFFNRTPAEARMRILEGRRRQVEERREGLREAVARASSSFDRYTRQLHQLGLESSEREVKWLNELIAAERAAPNPAEQT
MLQLTHVTLKTRQVILQDVDFTFKKGRVYGLLAINGSGKTTLFRAISNLIPISSGNIAAPPSLFYYESIEWLDGNLSGMDYLRLIKNIWKSGLNLRDEIAYWEMSDYISLPIRKYSLGMKQRLVIAMYFLSQAKCWLMDEITNGLDEYYRQKFFDRLAQIDRQEQLVLLSSHYKEELVDVCDRVVTIHQGQIEEV
MVLTDEQRQAIAKKREEAIRRAAAYREREMQAAANATASTSSAAPPAPPKPVIPVMFSQNRQNFQPMKPTMNNSTKQSTINNYIKQVQKPEPTSLIKPTIGVKLKLDIGDRIKIEFYPFHSAVIDLIKQVPSRNYDPAKRSWTVASSDHITISNILKNATAVKVELEPLPQNIIGLTNFKPKAAPSDLNTVMDPSLIERLFPYQKEGVIFALERDGRILLADEMGLGKSVQALTIARYYKADWPLLIVCPASVKGAWKKQLNTFFPIIHRIFIVDKSSDPLPDVCTSNTVAIMSYEQMVLKHDILKKEKYRTIIFDESHMLKDGKARRTKVATDLSKVALHVILLSGTPALSRPSELFTQIRLIDHKLFTNFHEFAIRYCDGKQGRFCFEAKGCTNSEELAAIMFKRLMIRRLKADVLKDLPEKRREVVYVSGPTIDARMDDLQKARADYEKVNSMERKHESLLEFYSLTGIVKAAAVCEHILENYFYPDAPPRKVLIFAHHQIVLDTIQVEVNKRKLGSIRIDGKTPSHRRTALCDSFQTDDNIRVAVLSITAAGVGITLTAASVVVFAEIHFNPGYLVQAEDRAHRVGQKDSVFVQYLIAKKTADDVMWNMVQQKLDVLGQVSLSSDTFRTADKMHLRFNDAAQPGIAEYLKKTPDTTIDEWEDPVEEKEDDDLEIICDSPAPKRIKN
MLDPARSFDIIGDVHGCALTLERLLDALGYKRVAGVWRHPRRQALFLGDIVDRGPRIREALHIVHDMVEAGQAFCIMGNHEYNALGWVTPALPGSGKAYVREHTPRHARLIDETLTQFAQHPGDWHDFVNWFYQLPLFIDAGRFRLVHALEHHHHHH
